Assay results published in the supplement of paper PMC10724198.
± gives the standard deviation of the averaged measurements.

System: Saccharomyces cerevisiae
Assay: protein stability index of tFT-peptide fusion (C-terminal peptide) (PSI (0-1 scale)); higher = more stable (slower turnover)
Settings: genetic background: wild type; temperature: 30 C
Description: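 Multiplexed protein stability (MPS) profiling in S. cerevisiae. Random 12-aa peptides (tFT-X12 library) are fused to the C-terminus of a sfGFP-mCherry tandem fluorescent timer, after mCherry and a GGGS linker. Cells are FACS-sorted into 8 mCherry/sfGFP bins and deep-sequenced. The protein stability index (PSI) is the read-weighted bin average, scaled from 0 (unstable) to 1 (stable). Only peptides with >10 reads are reported; cells were grown at 30 °C in SC-His with glucose.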
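Also: PSI is a weighted mean of sequencing reads over stability bins, variants kept only with over 10 reads, mCherry proximal and sfGFP distal, peptide attached via GGGS linker.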

Row | Sequence | protein stability index
1 | PGLGVGATRCVH | 0.734 ± 0.018
2 | LHLYPSLLLPGL | 0.742 ± 0.074
3 | PSRIRPPTASPP | 0.76 ± 0.061
4 | APDLAVWNLGPH | 0.68899 ± 0.00041
5 | VSLLCFCFGCVL | 0.604 ± 0.022
6 | RRAGGARGKTSE | 0.645 ± 0.014
7 | LMRSFLHFHLCL | 0.632 ± 0.01
8 | NRSIFITMDSSL | 0.676 ± 0.011
9 | RERAQEMGIRNE | 0.675 ± 0.031
10 | APKPPPPPPPLP | 0.709 ± 0.02
11 | FCAVRYLVEGRV | 0.533 ± 0.0064
12 | PPRSPPPPRLLL | 0.724 ± 0.048
13 | RAFDWFFIFGWC | 0.636 ± 0.04
14 | GKITKNKDNIET | 0.686 ± 0.021
15 | VYRLYPLSPLLY | 0.679 ± 0.12
16 | RPGSWINEITKE | 0.69944 ± 0.00024
17 | VHGRAPTSRSGT | 0.72 ± 0.043
18 | ISILPDSIGQGA | 0.687 ± 0.055
19 | QQNKKKKTRKSG | 0.704 ± 0.046
20 | FRCGLDFRWYVI | 0.62 ± 0.012
21 | LPAEGSTKSRSY | 0.741 ± 0.055
22 | PQFRHFWALSTT | 0.707 ± 0.015
23 | ERSQTKIANDKK | 0.719 ± 0.042
24 | KKKKKKKKKKKK | 0.6364 ± 0.00086
25 | VVASSRSAQRLP | 0.7006 ± 0.0064

Row | Sequence | protein stability index
26 | PRGTFARSRSTG | 0.7156 ± 0.0027
27 | HPTRPHLPPFAP | 0.681 ± 0.066
28 | SLSGPRCFLHSP | 0.681 ± 0.039
29 | SPALVRLSLPRP | 0.86 ± 0.14
30 | TRYKSFWSLASI | 0.703 ± 0.064
31 | CGPGGFGGERVG | 0.73 ± 0.058
32 | RTSLRYLKRVER | 0.669 ± 0.076
33 | RGGVGWGVFRVS | 0.679 ± 0.064
34 | VRFVVRSVSSFV | 0.5973 ± 0.0014
35 | GRNAGPSLLPAL | 0.684 ± 0.038
36 | GWSCGGVGGGLG | 0.71 ± 0.04
37 | SRGRSFFAGVGG | 0.722 ± 0.042
38 | WRGEMGGSGGQA | 0.713 ± 0.032
39 | VGGVAGSFIFSC | 0.759 ± 0.15
40 | GRHRGNVWGAVA | 0.701 ± 0.043
41 | GPFPPCVVPSSS | 0.643 ± 0.048
42 | ARVAFARLPNVC | 0.66 ± 0.016
43 | RFTCYLCLKGLL | 0.681 ± 0.052
44 | GIRGECEFHSCD | 0.685 ± 0.015
45 | HDAPTRQLTLPG | 0.663 ± 0.031
46 | RGSRVDLKLSKK | 0.678 ± 0.019
47 | LCSPKPASAPGH | 0.668 ± 0.032
48 | GRFVAPDSHPVG | 0.682 ± 0.021
49 | PLSPLHHCPLSP | 0.666 ± 0.039
50 | HYSMAPIPHDNR | 0.711 ± 0.074

Row | Sequence | protein stability index
51 | APNAGPPTRSHR | 0.737 ± 0.086
52 | PCRRPSSAPFPV | 0.696 ± 0.027
53 | GFALVVGNLISF | 0.636 ± 0.021
54 | LSSQCIVQLFRA | 0.64 ± 0.025
55 | PSRPPRLPPASF | 0.681 ± 0.046
56 | FEDIPSMEYRSI | 0.702 ± 0.05
57 | LSLSPPPASPIP | 0.692 ± 0.011
58 | PTHPHLTLTETP | 0.687 ± 0.017
59 | VFHSSTRDSFVS | 0.751 ± 0.066
60 | TGVRSAEAKRKQ | 0.579 ± 0.05
61 | TSLKGHFGIRLW | 0.6763 ± 0.0021
62 | SLREIIRKSLGL | 0.677 ± 0.022
63 | SIIIRVTQSGSG | 0.6414 ± 0.0056
64 | PVPPRSPPRLPF | 0.6673 ± 0.002
65 | KKKKKPKKQNSG | 0.6592 ± 0.0047
66 | EERGESRGWRVK | 0.604 ± 0.045
67 | PSPSPPRLLPPP | 0.7 ± 0.031
68 | DDATLAVCRGWV | 0.731 ± 0.028
69 | LSSSTHNLDFLQ | 0.698 ± 0.041
70 | RRMDGHLRELPA | 0.685 ± 0.058
71 | GNLPQIIYSKVQ | 0.609 ± 0.037
72 | VCGFRVGGYIGV | 0.723 ± 0.064
73 | WCGGGGVACLLL | 0.693 ± 0.0086
74 | EEYFFVNLFFAS | 0.752 ± 0.085
75 | SLGGLVSGPGLV | 0.687 ± 0.032

Row | Sequence | protein stability index
76 | VGGVGGGRAWWR | 0.685 ± 0.055
77 | PPPPPPRPFPPP | 0.66 ± 0.085
78 | TPSSLLLISPPS | 0.703 ± 0.083
79 | LFIGLAAVHAHY | 0.687 ± 0.11
80 | KKKKKSKKKETR | 0.807 ± 0.11
81 | VLARPQAKAPLG | 0.571
82 | RGWKGGLSLGEI | 0.586 ± 0.021
83 | LGFLSSLLCRSL | 0.779 ± 0.068
84 | GEGRRYVVVTEG | 0.693 ± 0.035
85 | PFPSPPSPPSPL | 0.817 ± 0.11
86 | FPLPPLPPVPPP | 0.632 ± 0.059
87 | VPCSIQWNLDEL | 0.673 ± 0.055
88 | KKKGSKITKIKD | 0.699 ± 0.064
89 | SAGDLFVFEYLG | 0.6759 ± 0.0024
90 | LFFFPRRLSPPT | 0.722 ± 0.05
91 | RFCRPLSHTALA | 0.632 ± 0.028
92 | PALPPAPPPPPP | 0.693 ± 0.044
93 | FCYVEDLSVSVD | 0.611 ± 0.0068
94 | GILNIRKALDGK | 0.6477 ± 0.0026
95 | GIDARGLYGGAL | 0.66 ± 0.032
96 | SLDLALLSPFFG | 0.679 ± 0.029
97 | RFPSRLLVPPPP | 0.698 ± 0.077
98 | RFVRGEFLWGVC | 0.663 ± 0.044
99 | CAVGPQSSSCPR | 0.56 ± 0.03
100 | EMGTTMATPCDH | 0.681 ± 0.0073

Row | Sequence | protein stability index
101 | YVTSKLMNLVLY | 0.662 ± 0.066
102 | VTVLFFLGPSLL | 0.575 ± 0.013
103 | SLFPPPLLLSAS | 0.574 ± 0.0095
104 | ILWVSPFFFSLD | 0.699 ± 0.064
105 | FAFQAHWGCRDF | 0.703 ± 0.053
106 | LEPSDMDTDSDG | 0.706 ± 0.018
107 | PPGYPLCLPLGF | 0.7018 ± 0.0035
108 | KAGLSFSRQRGW | 0.606 ± 0.058
109 | VDPAPPRRPPRY | 0.694 ± 0.097
110 | LSLSILFTPSPN | 0.682 ± 0.051
111 | LILLTVGSPRSG | 0.686 ± 0.013
112 | LPPLAPAPPTTS | 0.617 ± 0.0065
113 | VPPPPPRLKRFA | 0.639 ± 0.035
114 | LLGRGVSLFRCG | 0.643 ± 0.3
115 | THSQPPQYSRVP | 0.638 ± 0.071
116 | ILSPDRTHANET | 0.665 ± 0.083
117 | EGACPFLSFRGF | 0.658 ± 0.024
118 | CFVSSSRFLSSF | 0.692 ± 0.065
119 | LLSLFLLSPSVI | 0.681 ± 0.007
120 | IESLDRRGAEQI | 0.747 ± 0.045
121 | IQLQSNGLYSKK | 0.665 ± 0.065
122 | PLPPFPPHNLRA | 0.733 ± 0.082
123 | LVGGFLVSGRAR | 0.69 ± 0.051
124 | GIKMTWTNGQHF | 0.6909 ± 0.0054
125 | SRAARLLPKLLI | 0.589 ± 0.055

Row | Sequence | protein stability index
126 | NGKGECSLESSS | 0.677 ± 0.013
127 | SVPSAWCWVSSS | 0.6 ± 0.038
128 | RWATLSREFYQI | 0.526 ± 0.023
129 | LRLPSHHPLCYF | 0.684 ± 0.011
130 | WKEVGGSRILLV | 0.6033 ± 0.0031
131 | WGRGWWEMVGRT | 0.686 ± 0.0074
132 | VAVRGGSGDWGR | 0.713 ± 0.023
133 | PIELTLQRPPGV | 0.671 ± 0.031
134 | GVARSMAGWARC | 0.703 ± 0.035
135 | SCVFPSSCFVLI | 0.607 ± 0.019
136 | DGCLTKPGQCHG | 0.646 ± 0.013
137 | VGVGGRRYNVRG | 0.66 ± 0.013
138 | TNQRKKTVAGEK | 0.672 ± 0.025
139 | PPSKRSKKPFRI | 0.698 ± 0.022
140 | MYSSIFTHVFGV | 0.734 ± 0.024
141 | SFSLAGFVCCVI | 0.6002 ± 0.0045
142 | IILHLTRPGLAL | 0.673 ± 0.013
143 | GIRKRIEKKKIK | 0.7 ± 0.051
144 | AISAGRTFVEVV | 0.657 ± 0.067
145 | VPRPFILTATSE | 0.675 ± 0.084
146 | KKLNTYISQIEQ | 0.707 ± 0.0079
147 | PFPRPVSPSPPP | 0.743 ± 0.037
148 | GRSGSGGTWELG | 0.643 ± 0.039
149 | RGAGYQLFGPPR | 0.698 ± 0.037
150 | FDNPFQATTATK | 0.823 ± 0.16

Row | Sequence | protein stability index
151 | PAVAPRSTYAWH | 0.69619 ± 0.00054
152 | LWCGGWVCVLGW | 0.532 ± 0.013
153 | PVPPPPPPPLPP | 0.6 ± 0.03
154 | AEHSIFQLFPKD | 0.7034 ± 0.002
155 | LGEDRVKYQKLW | 0.7234 ± 0.007
156 | ARQSVYNDLVYV | 0.582 ± 0.0065
157 | PSRPPPARSSPP | 0.652 ± 0.0069
158 | IREQGQSLCKST | 0.603 ± 0.029
159 | TFLGEAGSVGVT | 0.646 ± 0.03
160 | SGSGCSDRRPSR | 0.699 ± 0.02
161 | DEVLVSGGKWWE | 0.73 ± 0.1
162 | IIKKKKNKARDI | 0.734 ± 0.067
163 | VGACGWRGWCVV | 0.664 ± 0.011
164 | QPAVKIGYAMAL | 0.644 ± 0.048
165 | PPPAPRRTRRPS | 0.698 ± 0.047
166 | FLHLTSSTPLSR | 0.794 ± 0.17
167 | SQGSTLRGIEEP | 0.661 ± 0.048
168 | GDMSIWRSNNIT | 0.6723 ± 0.00088
169 | PSPCRPPHTSAG | 0.646 ± 0.048
170 | PPSWASLRLPPT | 0.708 ± 0.072
171 | SRKIRTTLQESK | 0.7219 ± 0.0071
172 | GFATCSFPVCRV | 0.661 ± 0.027
173 | CFLSFLLFSSSP | 0.558 ± 0.025
174 | ETEGSSSLGTRI | 0.661 ± 0.021
175 | LALEVSNLSCSV | 0.696 ± 0.022

Row | Sequence | protein stability index
176 | EGPPYSRYKGGS | 0.645 ± 0.11
177 | SFFTLDRHPSYD | 0.715 ± 0.023
178 | GGGGRGTAVVGV | 0.66 ± 0.048
179 | RTRAPSKHAPER | 0.841 ± 0.16
180 | SRERRPKVFILR | 0.669 ± 0.027
181 | KEARKREHKQTN | 0.67 ± 0.094
182 | STPPGTPGISRQ | 0.723 ± 0.079
183 | TPLGLSVSSPPT | 0.661 ± 0.14
184 | GGRGSAWRWRRG | 0.674 ± 0.014
185 | SLHSTPRPPAPG | 0.705 ± 0.063
186 | KCLCSKSGSWPC | 0.685 ± 0.0078
187 | QEREAGVTALIR | 0.707 ± 0.04
188 | FRPCLRCLVSPF | 0.6358 ± 0.0063
189 | LGAWAGGGASSG | 0.704 ± 0.03
190 | CSGEGDQWLGVR | 0.7139 ± 0.0028
191 | HWRRGGRSGGDR | 0.71 ± 0.033
192 | PSRPLPPPPPPL | 0.765 ± 0.14
193 | CPLPLPPLHESF | 0.674 ± 0.031
194 | CSNGVPLTVLLM | 0.525 ± 0.0057
195 | GASGGRIGEGEE | 0.679 ± 0.011
196 | AAQHNSLRGGPP | 0.731 ± 0.036
